# Reference: patent publication US20130052177
# Legend:
# [1] = tested on: Flavo-KRS (monomeric full-length KRS with E. coli flavodoxin inserted at G310) (Homo sapiens / Escherichia coli fusion); experiment: EMSA; conditions: affinity from percent free tRNA; slightly weaker than native KRS; 0.1 uM tRNA; 20 mM HEPES pH 7.5, 20 mM KCl, 5 mM MgCl2, 2 mM DTT, on ice
# [2] = molecular target: KRS (lysyl-tRNA synthetase, full-length 1-597) (Homo sapiens) (UniProt Q15046); experiment: EMSA; conditions: affinity from percent free tRNA; 0.1 uM tRNA; 20 mM HEPES pH 7.5, 20 mM KCl, 5 mM MgCl2, 2 mM DTT, on ice
# Chain of KRS (lysyl-tRNA synthetase, full-length 1-597) (Homo sapiens) (Q15046 whole entry): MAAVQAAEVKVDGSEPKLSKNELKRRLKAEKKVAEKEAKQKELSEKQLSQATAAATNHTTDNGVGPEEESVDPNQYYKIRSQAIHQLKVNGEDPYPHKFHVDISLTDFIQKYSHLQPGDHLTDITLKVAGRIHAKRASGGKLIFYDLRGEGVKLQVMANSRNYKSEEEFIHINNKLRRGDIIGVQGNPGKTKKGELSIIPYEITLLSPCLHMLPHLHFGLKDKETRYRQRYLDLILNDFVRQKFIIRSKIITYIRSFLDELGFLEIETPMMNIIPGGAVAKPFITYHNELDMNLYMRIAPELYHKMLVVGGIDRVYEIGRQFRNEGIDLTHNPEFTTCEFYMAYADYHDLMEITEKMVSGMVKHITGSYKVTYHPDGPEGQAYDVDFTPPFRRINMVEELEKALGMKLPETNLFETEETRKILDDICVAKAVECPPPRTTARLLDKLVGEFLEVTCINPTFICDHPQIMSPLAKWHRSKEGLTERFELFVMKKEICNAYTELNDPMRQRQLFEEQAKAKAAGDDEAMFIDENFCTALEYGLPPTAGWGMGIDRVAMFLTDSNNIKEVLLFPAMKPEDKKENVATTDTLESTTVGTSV
substance,measurement,setting,value
human tRNALys3 (in vitro transcript),Kd,[1],1210 nM
same,Kd,[2],870 nM
